Test results: paper PMC4560963 (Molecular cell, 2015)

Target: the molecule itself
Assay: native gel or EMSA

B1: recombinant His6-TAF11 (natural protein)
chain: not shown
  stoichiometry N: 4
